Test results as given in paper PMC2886353 (The Journal of Cell Biology, 2010).

Target: the molecule itself
Experiment: single-molecule step-wise photobleaching

Protein	stoichiometry N
KIF17 (1-490)-3xmCit (domain or fragment, human, UniProt Q9P2E2-1 1-490, looked up) MASEAVKVVVRCRPMNQRERELRCQPVVTVDCARAQCCIQNPGAADEPPKQFTFDGAYHVDHVTEQIYNEIAYPLVEGVTEGYNGTIFAYGQTGSGKSFTMQGLPDPPSQRGIIPRAFEHVFESVQCAENTKFLVRASYLEIYNEDVRDLLGADTKQKLELKEHPEKGVYVKGLSMHTVHSVAQCEHIMETGWKNRSVGYTLMNKDSSRSHSIFTISIEMSAVDERGKDHLRAGKLNLVDLAGSERQSKTGATGERLKEATKINLSLSALGNVISALVDGRCKHVPYRDSKLTRLLQDSLGGNTKTLMVACLSPADNNYDETLSTLRYANRAKNIRNKPRINEDPKDALLREYQEEIKKLKAILTQQMSPSSLSALLSRQVPPDPVQVEEKLLPQPVIQHDVEAEKQLIREEYEERLARLKADYKAEQESRARLEEDITAMRNSYDVRLSTLEENLRKETEAVLQVGVLYKAEVMSRAEFASSAEYPPAF	2
KIF17 (1-369)-3xmCit (domain or fragment, human, UniProt Q9P2E2-1 1-369, looked up) MASEAVKVVVRCRPMNQRERELRCQPVVTVDCARAQCCIQNPGAADEPPKQFTFDGAYHVDHVTEQIYNEIAYPLVEGVTEGYNGTIFAYGQTGSGKSFTMQGLPDPPSQRGIIPRAFEHVFESVQCAENTKFLVRASYLEIYNEDVRDLLGADTKQKLELKEHPEKGVYVKGLSMHTVHSVAQCEHIMETGWKNRSVGYTLMNKDSSRSHSIFTISIEMSAVDERGKDHLRAGKLNLVDLAGSERQSKTGATGERLKEATKINLSLSALGNVISALVDGRCKHVPYRDSKLTRLLQDSLGGNTKTLMVACLSPADNNYDETLSTLRYANRAKNIRNKPRINEDPKDALLREYQEEIKKLKAILTQQMS	2
KIF17 (1-846)-3xmCit (domain or fragment, human, UniProt Q9P2E2-1 1-846, looked up) MASEAVKVVVRCRPMNQRERELRCQPVVTVDCARAQCCIQNPGAADEPPKQFTFDGAYHVDHVTEQIYNEIAYPLVEGVTEGYNGTIFAYGQTGSGKSFTMQGLPDPPSQRGIIPRAFEHVFESVQCAENTKFLVRASYLEIYNEDVRDLLGADTKQKLELKEHPEKGVYVKGLSMHTVHSVAQCEHIMETGWKNRSVGYTLMNKDSSRSHSIFTISIEMSAVDERGKDHLRAGKLNLVDLAGSERQSKTGATGERLKEATKINLSLSALGNVISALVDGRCKHVPYRDSKLTRLLQDSLGGNTKTLMVACLSPADNNYDETLSTLRYANRAKNIRNKPRINEDPKDALLREYQEEIKKLKAILTQQMSPSSLSALLSRQVPPDPVQVEEKLLPQPVIQHDVEAEKQLIREEYEERLARLKADYKAEQESRARLEEDITAMRNSYDVRLSTLEENLRKETEAVLQVGVLYKAEVMSRAEFASSAEYPPAFQYETVVKPKVFSTTDTLPSDDVSKTQVSSRFAELPKVEPSKSEISLGSSESSSLEETSVSEAFPGPEEPSNVEVSMPTEESRSRYFLDECLGQEAAGHLLGEQNYLPQEEPQEVPLQGLLGLQDPFAEVEAKLARLSSTVARTDAPQADVPKVPVQVPAPTDLLEPSDARPEAEAADDFPPRPEVDLASEVALEVVRTAEPGVWLEAQAPVALVAQPEPLPATAGVKRESVGMEVAVLTDDPLPVVDQQQVLARLQLLEQQVVGGEQAKNKDLKEKHKRRKRYADERRKQLVAALQNSDEDSGDWVLLNVYDSIQEEVRAKSKLLEKMQRKLRAAEVEIKDLQSEFQLEKIDYLAT	2
KIF17 (1-795)-3xmCit (domain or fragment, human, UniProt Q9P2E2-1 1-795, looked up) MASEAVKVVVRCRPMNQRERELRCQPVVTVDCARAQCCIQNPGAADEPPKQFTFDGAYHVDHVTEQIYNEIAYPLVEGVTEGYNGTIFAYGQTGSGKSFTMQGLPDPPSQRGIIPRAFEHVFESVQCAENTKFLVRASYLEIYNEDVRDLLGADTKQKLELKEHPEKGVYVKGLSMHTVHSVAQCEHIMETGWKNRSVGYTLMNKDSSRSHSIFTISIEMSAVDERGKDHLRAGKLNLVDLAGSERQSKTGATGERLKEATKINLSLSALGNVISALVDGRCKHVPYRDSKLTRLLQDSLGGNTKTLMVACLSPADNNYDETLSTLRYANRAKNIRNKPRINEDPKDALLREYQEEIKKLKAILTQQMSPSSLSALLSRQVPPDPVQVEEKLLPQPVIQHDVEAEKQLIREEYEERLARLKADYKAEQESRARLEEDITAMRNSYDVRLSTLEENLRKETEAVLQVGVLYKAEVMSRAEFASSAEYPPAFQYETVVKPKVFSTTDTLPSDDVSKTQVSSRFAELPKVEPSKSEISLGSSESSSLEETSVSEAFPGPEEPSNVEVSMPTEESRSRYFLDECLGQEAAGHLLGEQNYLPQEEPQEVPLQGLLGLQDPFAEVEAKLARLSSTVARTDAPQADVPKVPVQVPAPTDLLEPSDARPEAEAADDFPPRPEVDLASEVALEVVRTAEPGVWLEAQAPVALVAQPEPLPATAGVKRESVGMEVAVLTDDPLPVVDQQQVLARLQLLEQQVVGGEQAKNKDLKEKHKRRKRYADERRKQLVAALQNSDEDSGDW	2
KIF17 (1-738)-3xmCit (domain or fragment, human, UniProt Q9P2E2-1 1-738, looked up) MASEAVKVVVRCRPMNQRERELRCQPVVTVDCARAQCCIQNPGAADEPPKQFTFDGAYHVDHVTEQIYNEIAYPLVEGVTEGYNGTIFAYGQTGSGKSFTMQGLPDPPSQRGIIPRAFEHVFESVQCAENTKFLVRASYLEIYNEDVRDLLGADTKQKLELKEHPEKGVYVKGLSMHTVHSVAQCEHIMETGWKNRSVGYTLMNKDSSRSHSIFTISIEMSAVDERGKDHLRAGKLNLVDLAGSERQSKTGATGERLKEATKINLSLSALGNVISALVDGRCKHVPYRDSKLTRLLQDSLGGNTKTLMVACLSPADNNYDETLSTLRYANRAKNIRNKPRINEDPKDALLREYQEEIKKLKAILTQQMSPSSLSALLSRQVPPDPVQVEEKLLPQPVIQHDVEAEKQLIREEYEERLARLKADYKAEQESRARLEEDITAMRNSYDVRLSTLEENLRKETEAVLQVGVLYKAEVMSRAEFASSAEYPPAFQYETVVKPKVFSTTDTLPSDDVSKTQVSSRFAELPKVEPSKSEISLGSSESSSLEETSVSEAFPGPEEPSNVEVSMPTEESRSRYFLDECLGQEAAGHLLGEQNYLPQEEPQEVPLQGLLGLQDPFAEVEAKLARLSSTVARTDAPQADVPKVPVQVPAPTDLLEPSDARPEAEAADDFPPRPEVDLASEVALEVVRTAEPGVWLEAQAPVALVAQPEPLPATAGVKRESVGMEVAVLTDDPLPVVDQ	2
